Measured values from PMC6459899, “Pleiotropic Clostridioides difficile Cyclophilin PpiB Controls Cysteine-Tolerance, Toxin Production, the Central Metabolism and Multiple Stress Responses” (Frontiers in Pharmacology, 2019).

Biological target: CdPpiB wild type fused to the T25 subunit of adenylate cyclase (pKNTB) (C. difficile str. 630Δerm) (UniProt Q18D70)
Assay: two-hybrid; BACTH in E. coli BTH101; β-galactosidase assay (ONPG, 12 min, 30°C) in Miller Units, cultures grown o/n at 30°C with 0.5 mM IPTG

Lrp P87A fused to the T18 subunit of adenylate cyclase (natural protein)
β-galactosidase activity: 869 MU
